Measurements as given in paper PMC3707907, “TdIF1 Recognizes a Specific DNA Sequence through Its Helix-Turn-Helix and AT-Hook Motifs to Regulate Gene Transcription”.

How the values were obtained:
TdIF1 (His-tagged) [1] = molecular target: T1, TdIF1 (His-tagged) (UniProt Q9H147 1-329); experiment: competition; EMSA vs biotin-dsAT; 5, 15, 45 pmol; slightly weaker than competitor I; EMSA: 10 mM Tris-HCl pH 7.5, 100 mM NaCl, 1 mM EDTA, 1 mM DTT, 5% glycerol, 5 pmol probe, 100 ng protein in 10 ul, temperature not stated; GST pull-out: elution in 50 mM Tris-HCl pH 7.4, 5 mM beta-mercaptoethanol, 0.25% Tween 20, 10% glycerol, 150-350 mM NaCl; details: protein: recombinant; tags: His; chain copies: 2
T1 sequence: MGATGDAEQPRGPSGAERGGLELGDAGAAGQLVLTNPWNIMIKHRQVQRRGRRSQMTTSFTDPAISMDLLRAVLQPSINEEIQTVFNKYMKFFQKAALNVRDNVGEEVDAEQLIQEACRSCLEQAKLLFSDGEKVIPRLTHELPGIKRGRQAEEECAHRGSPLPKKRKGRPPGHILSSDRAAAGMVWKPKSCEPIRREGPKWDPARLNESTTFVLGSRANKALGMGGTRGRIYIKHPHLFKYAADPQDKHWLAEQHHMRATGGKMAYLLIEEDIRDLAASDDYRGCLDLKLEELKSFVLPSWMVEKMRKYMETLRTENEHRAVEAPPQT

TdIF1 (His-tagged) [2] = molecular target: T1, TdIF1 (His-tagged); experiment: EMSA; EMSA: 10 mM Tris-HCl pH 7.5, 100 mM NaCl, 1 mM EDTA, 1 mM DTT, 5% glycerol, 5 pmol probe, 100 ng protein in 10 ul, temperature not stated; GST pull-out: elution in 50 mM Tris-HCl pH 7.4, 5 mM beta-mercaptoethanol, 0.25% Tween 20, 10% glycerol, 150-350 mM NaCl; details: protein: recombinant; tags: His; chain copies: 2; label: biotin
TdIF1 (His-tagged) [3] = molecular target: T1, TdIF1 (His-tagged); experiment: competition; EMSA vs biotin-dsAT; 5, 15, 45 pmol; complex decreased; EMSA: 10 mM Tris-HCl pH 7.5, 100 mM NaCl, 1 mM EDTA, 1 mM DTT, 5% glycerol, 5 pmol probe, 100 ng protein in 10 ul, temperature not stated; GST pull-out: elution in 50 mM Tris-HCl pH 7.4, 5 mM beta-mercaptoethanol, 0.25% Tween 20, 10% glycerol, 150-350 mM NaCl; details: protein: recombinant; tags: His; chain copies: 2

B1: Competitor III (GNTGCATG only, AT-tract mutated) (dsDNA)
DNA 1: CGCCAAGCCTCAGTTGCATGGTCG
DNA 2: CGACCATGCAACTGAGGCTTGGCG
Does B1 bind (TdIF1 (His-tagged) [1])?
Result: binds

B2: biotin-dsAT probe (32-bp AT-rich dsDNA) (dsDNA)
DNA 1: CGGTATTAAAAATTACTGACAATATTAAATTAGATC
DNA 2: TAATTTAATATTGTCAGTAATTTTTAATACCG
Does B2 bind (TdIF1 (His-tagged) [2])?
Result: binds

B3: Competitor I (SELEX clone 10; AT-tract + GNTGCATG) (dsDNA)
DNA 1: CGCCAAATAAAAGTTGCATGGTCG
DNA 2: CGACCATGCAACTTTTATTTGGCG
Does B3 bind (TdIF1 (His-tagged) [3])?
Result: binds
